Test results: patent US20090017041A1

Tests used:
[1] = biological target: high molecular weight (HMW) proto-fibrillar (PF) oligomer enriched preparation of the Aβ1-42 peptide (Example 15) (human); test: ELISA, fraction coated at 2 µM; antibody 0.25 µg/ml
[2] = biological target: low molecular weight (LMW) monomeric preparation of the Aβ1-42 peptide (Example 15) (human); test: as above
[3] = biological target: high molecular weight (HMW) proto-fibrillar (PF) oligomer enriched preparation of the Aβ1-42 peptide (Example 15) (human); test: ELISA, fraction coated at 2 µM; antibody 0.125 µg/ml
[4] = biological target: low molecular weight (LMW) monomeric preparation of the Aβ1-42 peptide (Example 15) (human); test: as above
[5] = biological target: high molecular weight (HMW) proto-fibrillar (PF) oligomer enriched preparation of the Aβ1-42 peptide (Example 15) (human); test: ELISA, fraction coated at 2 µM; antibody 0.0156 µg/ml
[6] = biological target: low molecular weight (LMW) monomeric preparation of the Aβ1-42 peptide (Example 15) (human); test: as above
[7] = biological target: high molecular weight (HMW) proto-fibrillar (PF) oligomer enriched preparation of the Aβ1-42 peptide (Example 15) (human); test: ELISA, fraction coated at 2 µM; antibody 0.0313 µg/ml
[8] = biological target: low molecular weight (LMW) monomeric preparation of the Aβ1-42 peptide (Example 15) (human); test: as above
[9] = biological target: oligomer-enriched preparation of the Aβ1-42 peptide (Example 16); test: ELISA, fraction coated at 2.2 µM; antibody dilution 1:8 (start 0.5 µg/ml)
[10] = biological target: monomer-enriched preparation of the Aβ1-42 peptide (Example 16); test: ELISA, fraction coated at 2.2 µM; antibody dilution 1:16 (start 0.5 µg/ml)
[11] = biological target: oligomer-enriched preparation of the Aβ1-42 peptide (Example 16); test: as above
[12] = biological target: monomer-enriched preparation of the Aβ1-42 peptide (Example 16); test: ELISA, fraction coated at 2.2 µM; antibody dilution 1:32 (start 0.5 µg/ml)
[13] = biological target: oligomer-enriched preparation of the Aβ1-42 peptide (Example 16); test: as above
[14] = biological target: monomer-enriched preparation of the Aβ1-42 peptide (Example 16); test: ELISA, fraction coated at 2.2 µM; antibody dilution 1:64 (start 0.5 µg/ml)
[15] = biological target: oligomer-enriched preparation of the Aβ1-42 peptide (Example 16); test: as above
[16] = biological target: monomer-enriched preparation of the Aβ1-42 peptide (Example 16); test: ELISA, fraction coated at 2.2 µM; assay 1; antibody dilution 1:2 (start 0.5 µg/ml)
[17] = biological target: oligomer-enriched preparation of the Aβ1-42 peptide (Example 16); test: as above
[18] = biological target: oligomer-enriched preparation of the Aβ1-42 peptide (Example 16); test: ELISA, fraction coated at 2.2 µM; assay 1; antibody dilution 1:4 (start 0.5 µg/ml)
[19] = biological target: monomer-enriched preparation of the Aβ1-42 peptide (Example 16); test: ELISA, fraction coated at 2.2 µM; assay 1; antibody dilution 1:8 (start 0.5 µg/ml)
[20] = biological target: oligomer-enriched preparation of the Aβ1-42 peptide (Example 16); test: as above
[21] = biological target: oligomer-enriched preparation of the Aβ1-42 peptide (Example 16); test: ELISA, fraction coated at 2.2 µM; assay 2; antibody dilution 1:8 (start 0.5 µg/ml)
[22] = biological target: monomer-enriched preparation of the Aβ1-42 peptide (Example 16); test: ELISA, fraction coated at 2.2 µM; assay 3; antibody dilution 1:1 (start 0.5 µg/ml)
[23] = biological target: oligomer-enriched preparation of the Aβ1-42 peptide (Example 16); test: as above
[24] = biological target: monomer-enriched preparation of the Aβ1-42 peptide (Example 16); test: ELISA, fraction coated at 2.2 µM; assay 3; antibody dilution 1:4 (start 0.5 µg/ml)
[25] = biological target: oligomer-enriched preparation of the Aβ1-42 peptide (Example 16); test: as above
[26] = biological target: oligomer-enriched preparation of the Aβ1-42 peptide (Example 16); test: ELISA, fraction coated at 2.2 µM; assay 3; antibody dilution 1:8 (start 0.5 µg/ml)
[27] = biological target: monomer-enriched preparation of the Aβ1-42 peptide (Example 16); test: ELISA, fraction coated at 2.2 µM; assay 1; antibody dilution 1:16 (start 0.5 µg/ml)
[28] = biological target: oligomer-enriched preparation of the Aβ1-42 peptide (Example 16); test: as above
[29] = biological target: monomer-enriched preparation of the Aβ1-42 peptide (Example 16); test: ELISA, fraction coated at 2.2 µM; assay 1; antibody dilution 1:64 (start 0.5 µg/ml)
[30] = biological target: oligomer-enriched preparation of the Aβ1-42 peptide (Example 16); test: as above
[31] = biological target: monomer-enriched preparation of the Aβ1-42 peptide (Example 16); test: ELISA, fraction coated at 2.2 µM; assay 2; antibody dilution 1:16 (start 0.5 µg/ml)
[32] = biological target: oligomer-enriched preparation of the Aβ1-42 peptide (Example 16); test: as above
[33] = biological target: monomer-enriched preparation of the Aβ1-42 peptide (Example 16); test: ELISA, fraction coated at 2.2 µM; assay 3; antibody dilution 1:64 (start 0.5 µg/ml)

Sequence of monomer-enriched preparation of the Aβ1-42 peptide (Example 16) (peptide, as listed by the source): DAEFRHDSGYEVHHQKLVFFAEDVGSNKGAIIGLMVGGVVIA
Sequence of oligomer-enriched preparation of the Aβ1-42 peptide (Example 16) (peptide, as listed by the source): as above
Sequence of low molecular weight (LMW) monomeric preparation of the Aβ1-42 peptide (Example 15) (human) (peptide, as listed by the source): as above
Sequence of high molecular weight (HMW) proto-fibrillar (PF) oligomer enriched preparation of the Aβ1-42 peptide (Example 15) (human) (peptide, as listed by the source): as above

## 6E10 control antibody
[1]
  O.D. (405 nm): 1.44 O.D.
[2]
  O.D. (405 nm): 1.56 O.D.
[3]
  O.D. (405 nm): 0.863 O.D.
[4]
  O.D. (405 nm): 0.999 O.D.
[5]
  O.D. (405 nm): 0.201 O.D.
[6]
  O.D. (405 nm): 0.207 O.D.
[7]
  O.D. (405 nm): 0.286 O.D.
[8]
  O.D. (405 nm): 0.329 O.D.
[9]
  O.D. (405 nm), mean of 3 assays: 2.98 O.D.
[10]
  O.D. (405 nm), mean of 3 assays: 1.98 O.D.
[11]
  O.D. (405 nm), mean of 3 assays: 1.92 O.D.
[12]
  O.D. (405 nm), mean of 3 assays: 1.36 O.D.
[13]
  O.D. (405 nm), mean of 3 assays: 1.32 O.D.
[14]
  O.D. (405 nm), mean of 3 assays: 0.94 O.D.
[15]
  O.D. (405 nm), mean of 3 assays: 0.92 O.D.
[16]
  O.D. (405 nm): 3.3 O.D.
[17]
  O.D. (405 nm): 3.39 O.D.
[18]
  O.D. (405 nm): 3.1 O.D.
[19]
  O.D. (405 nm): 2.67 O.D.
[20]
  O.D. (405 nm): 2.73 O.D.
[21]
  O.D. (405 nm): 2.99 O.D.
[22]
  O.D. (405 nm): 4.04 O.D.
[23]
  O.D. (405 nm): 3.89 O.D.
[24]
  O.D. (405 nm): 3.52 O.D.
[25]
  O.D. (405 nm): 3.64 O.D.
[26]
  O.D. (405 nm): 3.23 O.D.
[27]
  O.D. (405 nm): 1.78 O.D.
[28]
  O.D. (405 nm): 1.78 O.D.
[29]
  O.D. (405 nm): 0.81 O.D.
[30]
  O.D. (405 nm): 0.93 O.D.
[31]
  O.D. (405 nm): 1.94 O.D.
[32]
  O.D. (405 nm): 1.92 O.D.
[33]
  O.D. (405 nm): 1.08 O.D.
